Reference: the supplement of paper PMC9112550, “Optimization of the antimicrobial peptide Bac7 by deep mutational scanning” (BMC Biology, 2022)

Tested on: Escherichia coli TOP10
Assay: shrunken log2 fold change of peptide-encoding DNA abundance (4.5 h post-induction vs induction); higher = less antimicrobial activity (less host growth inhibition)
Details: time post-induction: 4.5 h; library: site-saturation at positions 5, 18, 19, 20
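Further: peptides expressed intracellularly from a pBAD plasmid library in pooled LB shake-flask culture, induced with 0.3% L-arabinose, DNA abundance read by NGS, three biological replicates, DESeq2 with apeglm shrinkage.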

Sequence	shrunken log2 fold change
RRIRKRPPRLPRPRPRPDGHPRP	-0.0242
RRIRERPPRLPRPRPRPCPSPRP	-0.115
RRIRMRPPRLPRPRPRPGIAPRP	1.11
RRIRIRPPRLPRPRPRPQGSPRP	-0.0316
RRIRFRPPRLPRPRPRPGGTPRP	-0.0188
RRIRQRPPRLPRPRPRPWWPPRP	-0.119
RRIRARPPRLPRPRPRPHAQPRP	0.122
RRIRARPPRLPRPRPRPAENPRP	0.865
RRIRKRPPRLPRPRPRPWQFPRP	0.157
RRIRGRPPRLPRPRPRPQNAPRP	0.00487
RRIRIRPPRLPRPRPRPDGHPRP	-0.153
RRIRKRPPRLPRPRPRPPNGPRP	0.189
RRIRGRPPRLPRPRPRPMEPPRP	0.245
RRIRYRPPRLPRPRPRPAKTPRP	-0.00829
RRIRMRPPRLPRPRPRPSYMPRP	-0.276
RRIRGRPPRLPRPRPRPDIPPRP	0.23
RRIRKRPPRLPRPRPRPIAKPRP	0.141
RRIRIRPPRLPRPRPRPTDIPRP	-0.359
RRIRERPPRLPRPRPRPGQSPRP	0.0977
RRIRHRPPRLPRPRPRPFWYPRP	-0.167
RRIRARPPRLPRPRPRPFHDPRP	-0.356
RRIRWRPPRLPRPRPRPIRMPRP	0.098
RRIRTRPPRLPRPRPRPPHFPRP	0.7
RRIRARPPRLPRPRPRPTYLPRP	-0.023
RRIRERPPRLPRPRPRPKHVPRP	-0.146

Sequence	shrunken log2 fold change
RRIRARPPRLPRPRPRPNPQPRP	0.002
RRIRKRPPRLPRPRPRPRMGPRP	0.149
RRIRNRPPRLPRPRPRPVLTPRP	-0.235
RRIRCRPPRLPRPRPRPYLTPRP	-0.459
RRIRIRPPRLPRPRPRPVKKPRP	-0.0235
RRIRLRPPRLPRPRPRPSFCPRP	-0.403
RRIRWRPPRLPRPRPRPTIHPRP	0.13
RRIRPRPPRLPRPRPRPVTNPRP	-0.299
RRIRTRPPRLPRPRPRPYCPPRP	-0.821
RRIRYRPPRLPRPRPRPIKDPRP	-0.171
RRIRVRPPRLPRPRPRPQNHPRP	-0.608
RRIRNRPPRLPRPRPRPIMFPRP	-0.0388
RRIRYRPPRLPRPRPRPCHMPRP	-0.218
RRIRFRPPRLPRPRPRPFYCPRP	-0.781
RRIRLRPPRLPRPRPRPARHPRP	0.148
RRIRGRPPRLPRPRPRPKTRPRP	0.884
RRIRGRPPRLPRPRPRPESKPRP	1.32
RRIRIRPPRLPRPRPRPCEDPRP	-0.424
RRIRMRPPRLPRPRPRPLPGPRP	0.8
RRIRTRPPRLPRPRPRPKINPRP	-0.325
RRIRDRPPRLPRPRPRPGEQPRP	0.259
RRIRSRPPRLPRPRPRPWMEPRP	-0.384
RRIRMRPPRLPRPRPRPCHIPRP	-0.0247
RRIRSRPPRLPRPRPRPEGQPRP	0.193
RRIRWRPPRLPRPRPRPPVKPRP	0.644

Sequence	shrunken log2 fold change
RRIRQRPPRLPRPRPRPIVDPRP	0.0252
RRIRERPPRLPRPRPRPMIFPRP	-0.223
RRIRKRPPRLPRPRPRPKTVPRP	0.355
RRIRARPPRLPRPRPRPLVKPRP	0.0577
RRIRQRPPRLPRPRPRPGESPRP	0.0357
RRIRVRPPRLPRPRPRPFQKPRP	0.0406
RRIRMRPPRLPRPRPRPFLNPRP	-0.247
RRIRKRPPRLPRPRPRPQGNPRP	0.0216
RRIRSRPPRLPRPRPRPENPPRP	-0.143
RRIRIRPPRLPRPRPRPLCMPRP	-0.964
RRIRTRPPRLPRPRPRPHLYPRP	-0.154
RRIRHRPPRLPRPRPRPKFKPRP	0.0646
RRIRTRPPRLPRPRPRPRKGPRP	0.333
RRIRNRPPRLPRPRPRPGFSPRP	0.0167
RRIRQRPPRLPRPRPRPKVKPRP	-0.223
RRIRGRPPRLPRPRPRPCCPPRP	0.0328
RRIRQRPPRLPRPRPRPFCVPRP	-0.0258
RRIRVRPPRLPRPRPRPVIFPRP	-0.0885
RRIRHRPPRLPRPRPRPRTDPRP	0.0682
RRIRWRPPRLPRPRPRPKPAPRP	0.605
RRIRHRPPRLPRPRPRPSWPPRP	-0.00928
RRIRGRPPRLPRPRPRPSNLPRP	-0.113
RRIRMRPPRLPRPRPRPVPMPRP	0.44
RRIRWRPPRLPRPRPRPRTKPRP	1.88
RRIRRRPPRLPRPRPRPYCKPRP	-0.24

Sequence	shrunken log2 fold change
RRIRKRPPRLPRPRPRPHVVPRP	-0.183
RRIRQRPPRLPRPRPRPSDDPRP	-0.0143
RRIRHRPPRLPRPRPRPYDKPRP	-0.961
RRIRMRPPRLPRPRPRPIKCPRP	-0.0724
RRIRIRPPRLPRPRPRPWPNPRP	-0.0754
RRIRARPPRLPRPRPRPYRRPRP	-0.174
RRIRFRPPRLPRPRPRPIDMPRP	-0.727
RRIRRRPPRLPRPRPRPKFYPRP	-0.102
RRIRWRPPRLPRPRPRPAVCPRP	0.803
RRIRTRPPRLPRPRPRPYQWPRP	-0.216
RRIRIRPPRLPRPRPRPDQVPRP	-0.117
RRIRLRPPRLPRPRPRPTMSPRP	-0.226
RRIRLRPPRLPRPRPRPVWAPRP	0.424
RRIRVRPPRLPRPRPRPIFRPRP	0.0423
RRIRNRPPRLPRPRPRPPVQPRP	0.0479
RRIRTRPPRLPRPRPRPYDYPRP	-0.00193
RRIRKRPPRLPRPRPRPDDWPRP	1.73
RRIRIRPPRLPRPRPRPFGNPRP	-0.118
RRIRPRPPRLPRPRPRPHPVPRP	0.151
RRIRNRPPRLPRPRPRPVLPPRP	-0.11
RRIRRRPPRLPRPRPRPGMVPRP	0.308
RRIRCRPPRLPRPRPRPRIEPRP	-0.205
RRIRKRPPRLPRPRPRPCFCPRP	0.0588
RRIRMRPPRLPRPRPRPYTIPRP	0.0978
RRIRTRPPRLPRPRPRPSATPRP	0.273

Sequence	shrunken log2 fold change
RRIRGRPPRLPRPRPRPRHMPRP	0.57
RRIRMRPPRLPRPRPRPAIEPRP	0.112
RRIRPRPPRLPRPRPRPLYYPRP	-0.985
RRIRDRPPRLPRPRPRPSRFPRP	0.128
RRIRLRPPRLPRPRPRPNKIPRP	-0.243
RRIRTRPPRLPRPRPRPTVLPRP	-0.0554
RRIRQRPPRLPRPRPRPVCCPRP	0.161
RRIRMRPPRLPRPRPRPYEIPRP	0.0237
RRIRYRPPRLPRPRPRPCGAPRP	-0.324
RRIRGRPPRLPRPRPRPHASPRP	0.585
RRIRERPPRLPRPRPRPMANPRP	0.0745
RRIRHRPPRLPRPRPRPDRGPRP	-0.144
RRIRERPPRLPRPRPRPRIYPRP	-0.194
RRIRNRPPRLPRPRPRPEWLPRP	0.226
RRIRLRPPRLPRPRPRPRKCPRP	0.309
RRIRSRPPRLPRPRPRPKRDPRP	0.0509
RRIRYRPPRLPRPRPRPNSCPRP	0.0432
RRIRDRPPRLPRPRPRPHAFPRP	-0.0699
RRIRPRPPRLPRPRPRPQHKPRP	-0.449
RRIRCRPPRLPRPRPRPGAKPRP	0.309
RRIRRRPPRLPRPRPRPWWIPRP	0.249
RRIRWRPPRLPRPRPRPEDLPRP	-0.0249
RRIRVRPPRLPRPRPRPMEDPRP	0.0593
RRIRCRPPRLPRPRPRPTLWPRP	0.313
RRIRGRPPRLPRPRPRPHKDPRP	0.11

Sequence	shrunken log2 fold change
RRIRLRPPRLPRPRPRPNILPRP	-0.634
RRIRIRPPRLPRPRPRPEDRPRP	-0.0106
RRIRWRPPRLPRPRPRPPKSPRP	0.789
RRIRIRPPRLPRPRPRPLDCPRP	-0.267
RRIRRRPPRLPRPRPRPSPEPRP	0.513
RRIRFRPPRLPRPRPRPSVCPRP	-0.16
RRIRNRPPRLPRPRPRPMAAPRP	0.582
RRIRNRPPRLPRPRPRPPRFPRP	0.441
RRIRFRPPRLPRPRPRPQLKPRP	-0.0312
RRIRMRPPRLPRPRPRPTWHPRP	0.309
RRIRNRPPRLPRPRPRPYIHPRP	-0.387
RRIRVRPPRLPRPRPRPQVMPRP	-0.112
RRIRRRPPRLPRPRPRPQGRPRP	0.544
RRIRWRPPRLPRPRPRPAIWPRP	0.596
RRIRTRPPRLPRPRPRPHDRPRP	-0.00195
RRIRTRPPRLPRPRPRPTGPPRP	0.48
RRIRIRPPRLPRPRPRPVGFPRP	-0.182
RRIRMRPPRLPRPRPRPSVGPRP	0.357
RRIRGRPPRLPRPRPRPIPLPRP	0.16
RRIRNRPPRLPRPRPRPKPNPRP	0.513
RRIRYRPPRLPRPRPRPNAPPRP	-0.228
RRIRVRPPRLPRPRPRPQTEPRP	-0.134
RRIRVRPPRLPRPRPRPMTMPRP	-0.0831
RRIRVRPPRLPRPRPRPQKDPRP	-0.187
RRIRLRPPRLPRPRPRPPLVPRP	0.402
